Assay results: US20230272045A1 (MONASH UNIVERSITY, published 2023)

Tests used:
Experiment in all cases: ELISA; ECM protein coated at 100 nM, BMP-2 0.1 to 100 nM
human fibrinogen = molecular target: T1, human fibrinogen (human, UniProt P02671 20-644; P02675 31-491; P02679 27-437, limits assumed)
T1 construct: Coated on ELISA plates at 100 nM; also called Fg
T1 sequence (looked up) 1: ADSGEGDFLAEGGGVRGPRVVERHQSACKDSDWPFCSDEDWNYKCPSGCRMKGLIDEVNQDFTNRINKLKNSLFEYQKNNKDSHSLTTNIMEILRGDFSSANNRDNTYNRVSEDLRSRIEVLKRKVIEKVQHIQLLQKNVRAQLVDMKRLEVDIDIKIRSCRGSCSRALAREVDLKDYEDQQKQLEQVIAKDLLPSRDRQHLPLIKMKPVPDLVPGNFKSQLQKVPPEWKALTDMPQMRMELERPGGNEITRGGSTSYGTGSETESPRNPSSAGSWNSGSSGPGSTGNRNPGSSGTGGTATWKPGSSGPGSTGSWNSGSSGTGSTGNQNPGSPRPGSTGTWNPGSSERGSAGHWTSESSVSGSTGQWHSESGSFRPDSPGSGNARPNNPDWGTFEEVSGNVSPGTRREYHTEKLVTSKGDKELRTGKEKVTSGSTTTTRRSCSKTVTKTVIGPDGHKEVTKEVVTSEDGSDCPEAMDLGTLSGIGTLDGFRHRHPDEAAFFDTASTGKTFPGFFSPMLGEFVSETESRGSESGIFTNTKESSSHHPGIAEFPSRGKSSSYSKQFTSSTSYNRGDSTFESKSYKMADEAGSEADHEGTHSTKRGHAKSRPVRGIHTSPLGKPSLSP
T1 sequence (looked up) 2: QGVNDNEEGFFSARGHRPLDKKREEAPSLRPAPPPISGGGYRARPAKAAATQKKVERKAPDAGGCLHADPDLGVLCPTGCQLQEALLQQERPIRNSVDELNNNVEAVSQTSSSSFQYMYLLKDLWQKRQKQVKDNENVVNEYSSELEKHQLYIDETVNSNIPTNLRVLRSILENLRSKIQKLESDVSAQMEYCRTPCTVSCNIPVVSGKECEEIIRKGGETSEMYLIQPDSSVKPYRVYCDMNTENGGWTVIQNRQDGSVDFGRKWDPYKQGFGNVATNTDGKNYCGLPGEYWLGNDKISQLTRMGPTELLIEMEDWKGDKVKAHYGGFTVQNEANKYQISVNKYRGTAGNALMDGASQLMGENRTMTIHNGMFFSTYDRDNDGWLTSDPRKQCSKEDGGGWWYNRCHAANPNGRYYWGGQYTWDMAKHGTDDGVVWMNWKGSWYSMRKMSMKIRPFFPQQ
T1 sequence (looked up) 3: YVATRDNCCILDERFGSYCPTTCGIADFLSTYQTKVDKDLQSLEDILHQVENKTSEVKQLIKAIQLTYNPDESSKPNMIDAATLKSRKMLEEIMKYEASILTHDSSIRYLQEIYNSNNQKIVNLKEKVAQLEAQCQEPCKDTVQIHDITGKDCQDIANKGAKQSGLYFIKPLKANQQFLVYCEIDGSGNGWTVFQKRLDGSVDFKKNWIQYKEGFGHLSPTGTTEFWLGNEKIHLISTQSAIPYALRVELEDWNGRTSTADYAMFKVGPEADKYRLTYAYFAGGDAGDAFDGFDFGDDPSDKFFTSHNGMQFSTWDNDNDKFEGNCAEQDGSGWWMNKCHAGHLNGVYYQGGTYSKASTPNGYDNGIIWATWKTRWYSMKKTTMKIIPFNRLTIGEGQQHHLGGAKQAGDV
Description: (§1) ELISA plates (Greiner bio-one medium binding, Thermo Fisher Scientific) were coated with 100 nM of ECM proteins in […] of PBS for 1 h at 37° C. Then, wells were washed with […] of PBS-T (0.05% Tween-20) and blocked with […] of BSA solution (1% in PBS-T) for 1 h at room temperature. Wells without ECM protein coating, and wells blocked only with the BSA solution were used as controls for non-specific binding. ECM coated wells and control wells were further incubated 1 h at room temperature with solutions of BMP-2 (Peprotech), murine PDGF-BB (Peprotech), IL-1Ra (R&D Systems), or PIGF₁₂₃₋₁₄₁-fused proteins at concentrations ranging from 0 to 100 nM ([…] in PBS-T containing 0.1% BSA prepared in protein-low bind tubes (PROKEEP, Watson bio lab). Then, wells were washed 3 times with […] of PBS-T and incubated for 1 h with […] of biotinylated polyclonal detection antibodies in PBS-T with 0.1% BSA. Detection antibodies used were from BMP-2 DuoSet ELISA (R&D Systems, DY355) for BMP-2, PDGF-BB DuoSet ELISA (R&D Systems, DY8464) for PDGF-BB and IL-1Ra/IL-1F3
(§2) DuoSet ELISA (R&D Systems, DY480) for IL-1Ra. Wells were further washed 3 times with PBS-T and incubated for 20 min with […] of streptavidin-horseradish peroxidase (HRP). After three washes with PBS-T, TMB (ThermoFisher) was added followed by […] of stop solution (0.16M sulfuric acid). Concentrations of detection antibodies and streptavidin-HRP were used according to the manufacturer's instructions. To calculate the dissociation constants (KD) specific-binding values were fitted with a one site specific binding model using A450 nm=Bmax*[growth factors or IL-1Ra variants]/(KD+[growth factors or IL-1Ra variants]).

human plasma fibronectin = molecular target: T2, human plasma fibronectin (human, UniProt P02751-8 32-2296, limits assumed)
T2 construct: Coated on ELISA plates at 100 nM; also called Fn
Description: as §1, §2

human vitronectin = molecular target: T3, human vitronectin (human, UniProt P04004 20-478)
T3 construct: Coated on ELISA plates at 100 nM; also called Vn
Description: as §1, §2

Measured: binding result

T2 sequence (P02751 other isoform, or with tags, fused parts or gaps limits assumed): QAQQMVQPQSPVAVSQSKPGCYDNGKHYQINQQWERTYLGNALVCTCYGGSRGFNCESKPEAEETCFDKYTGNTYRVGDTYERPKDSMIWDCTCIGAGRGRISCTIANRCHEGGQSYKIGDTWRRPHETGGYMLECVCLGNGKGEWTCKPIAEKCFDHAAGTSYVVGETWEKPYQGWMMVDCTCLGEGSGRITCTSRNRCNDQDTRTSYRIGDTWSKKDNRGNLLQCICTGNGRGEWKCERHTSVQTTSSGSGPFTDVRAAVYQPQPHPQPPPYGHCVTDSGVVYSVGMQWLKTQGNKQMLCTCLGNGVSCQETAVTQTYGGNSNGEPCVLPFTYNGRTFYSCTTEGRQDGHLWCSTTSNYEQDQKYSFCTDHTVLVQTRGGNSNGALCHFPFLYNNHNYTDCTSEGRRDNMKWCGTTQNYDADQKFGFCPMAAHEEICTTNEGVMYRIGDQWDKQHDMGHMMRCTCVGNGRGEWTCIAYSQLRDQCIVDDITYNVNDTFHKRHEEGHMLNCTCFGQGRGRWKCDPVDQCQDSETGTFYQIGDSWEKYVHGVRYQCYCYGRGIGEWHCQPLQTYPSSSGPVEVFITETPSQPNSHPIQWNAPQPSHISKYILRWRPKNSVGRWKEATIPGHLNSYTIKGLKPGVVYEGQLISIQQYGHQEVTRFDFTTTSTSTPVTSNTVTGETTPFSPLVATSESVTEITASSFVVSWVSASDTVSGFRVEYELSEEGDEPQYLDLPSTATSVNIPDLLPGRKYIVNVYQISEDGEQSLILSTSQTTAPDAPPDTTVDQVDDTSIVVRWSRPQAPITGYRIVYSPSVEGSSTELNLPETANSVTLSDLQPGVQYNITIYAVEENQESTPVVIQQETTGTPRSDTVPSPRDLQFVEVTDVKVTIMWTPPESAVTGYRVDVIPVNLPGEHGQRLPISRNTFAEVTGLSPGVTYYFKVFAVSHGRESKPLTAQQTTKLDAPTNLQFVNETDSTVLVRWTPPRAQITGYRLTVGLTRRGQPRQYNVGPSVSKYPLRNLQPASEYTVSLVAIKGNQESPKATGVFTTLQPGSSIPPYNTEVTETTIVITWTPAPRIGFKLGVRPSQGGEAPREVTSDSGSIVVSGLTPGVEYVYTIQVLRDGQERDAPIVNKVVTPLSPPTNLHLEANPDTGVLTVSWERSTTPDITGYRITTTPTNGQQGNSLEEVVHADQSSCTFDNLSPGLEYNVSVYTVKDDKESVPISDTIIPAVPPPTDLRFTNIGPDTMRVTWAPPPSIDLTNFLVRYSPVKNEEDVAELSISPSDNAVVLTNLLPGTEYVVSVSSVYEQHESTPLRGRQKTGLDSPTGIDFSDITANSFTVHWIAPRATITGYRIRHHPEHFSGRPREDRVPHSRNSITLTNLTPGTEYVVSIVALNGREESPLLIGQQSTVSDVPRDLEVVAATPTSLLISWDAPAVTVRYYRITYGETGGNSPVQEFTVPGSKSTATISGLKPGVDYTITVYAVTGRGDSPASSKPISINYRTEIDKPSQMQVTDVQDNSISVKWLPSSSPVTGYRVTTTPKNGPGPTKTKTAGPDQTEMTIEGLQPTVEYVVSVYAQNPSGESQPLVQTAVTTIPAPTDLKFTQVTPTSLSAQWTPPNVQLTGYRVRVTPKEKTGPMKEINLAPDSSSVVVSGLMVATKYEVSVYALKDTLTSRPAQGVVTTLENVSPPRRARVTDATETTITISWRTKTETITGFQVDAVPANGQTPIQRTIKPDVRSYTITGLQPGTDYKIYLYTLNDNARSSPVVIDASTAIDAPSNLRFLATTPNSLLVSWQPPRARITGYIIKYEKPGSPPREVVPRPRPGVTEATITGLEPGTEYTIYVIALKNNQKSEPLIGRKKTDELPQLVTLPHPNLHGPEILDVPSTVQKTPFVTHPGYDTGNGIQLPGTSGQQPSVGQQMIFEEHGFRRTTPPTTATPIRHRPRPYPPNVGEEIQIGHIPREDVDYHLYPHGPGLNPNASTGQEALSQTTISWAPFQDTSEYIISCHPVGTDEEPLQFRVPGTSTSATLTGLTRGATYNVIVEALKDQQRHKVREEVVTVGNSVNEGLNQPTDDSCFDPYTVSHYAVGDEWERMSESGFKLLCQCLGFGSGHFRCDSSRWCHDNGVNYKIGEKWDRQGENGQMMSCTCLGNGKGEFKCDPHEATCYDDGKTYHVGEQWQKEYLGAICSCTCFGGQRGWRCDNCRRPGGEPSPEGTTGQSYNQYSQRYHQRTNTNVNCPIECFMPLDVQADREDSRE
T3 sequence (P04004 20-478 limits assumed): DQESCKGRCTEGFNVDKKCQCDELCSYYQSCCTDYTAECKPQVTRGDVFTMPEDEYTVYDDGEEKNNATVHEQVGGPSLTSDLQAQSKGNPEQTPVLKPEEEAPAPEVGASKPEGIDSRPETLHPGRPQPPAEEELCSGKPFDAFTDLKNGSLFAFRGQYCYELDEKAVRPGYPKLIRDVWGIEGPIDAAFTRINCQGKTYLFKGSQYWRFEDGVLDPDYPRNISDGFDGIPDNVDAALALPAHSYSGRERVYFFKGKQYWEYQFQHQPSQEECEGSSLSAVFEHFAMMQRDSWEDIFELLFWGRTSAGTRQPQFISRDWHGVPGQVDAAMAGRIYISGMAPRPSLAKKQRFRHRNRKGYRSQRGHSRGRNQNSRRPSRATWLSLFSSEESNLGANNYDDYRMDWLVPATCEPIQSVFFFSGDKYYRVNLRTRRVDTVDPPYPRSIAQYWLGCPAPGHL

B1: BMP-2 (bone morphogenetic protein-2, Peprotech) (ligand, murine, UniProt P21274 281-394, looked up)
chain: QAKHKQRKRLKSSCKRHPLYVDFSDVGWNDWIVAPPGYHAFYCHGECPFPLADHLNSTNHAIVQTLVNSVNSKIPKACCVPTELSAISMLYLDENEKVVLKNYQDMVVEGCGCR
notes: also called wild-type BMP-2
binds: all assays above
